According to PMC12018839:

Biological target: T1, GST-PIL15 (Oryza sativa (rice), UniProt Q0JNI9 1-637)
T1 sequence: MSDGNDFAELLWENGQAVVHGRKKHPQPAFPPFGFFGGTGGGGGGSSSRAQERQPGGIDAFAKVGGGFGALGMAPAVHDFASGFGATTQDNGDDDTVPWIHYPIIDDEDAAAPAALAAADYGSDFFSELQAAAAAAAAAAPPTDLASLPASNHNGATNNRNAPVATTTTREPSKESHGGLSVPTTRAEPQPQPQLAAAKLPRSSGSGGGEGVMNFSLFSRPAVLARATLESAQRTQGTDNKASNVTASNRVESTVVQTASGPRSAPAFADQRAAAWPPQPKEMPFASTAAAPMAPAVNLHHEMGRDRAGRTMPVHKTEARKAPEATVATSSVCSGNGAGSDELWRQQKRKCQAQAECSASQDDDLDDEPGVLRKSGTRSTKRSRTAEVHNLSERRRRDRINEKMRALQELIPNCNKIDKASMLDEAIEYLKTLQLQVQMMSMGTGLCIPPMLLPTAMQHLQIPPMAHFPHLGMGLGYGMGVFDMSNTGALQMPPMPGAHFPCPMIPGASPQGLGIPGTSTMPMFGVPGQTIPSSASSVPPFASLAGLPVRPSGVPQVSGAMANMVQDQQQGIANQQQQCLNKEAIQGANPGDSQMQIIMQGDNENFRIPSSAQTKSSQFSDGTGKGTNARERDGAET
Assay: EMSA

B1: PIL15 EMSA probe (AMT1;2 promoter PBE-box) (dsDNA)
DNA 1: AGGATTTCATGTGTTTTGGT
DNA 2: ACCAAAACACATGAAATCCT
- binding result: binds
